Experimental data: patent publication US20260242419A1, “A CYCLIC PEPTIDE FOR TRAPPING INTERLEUKIN-1 BETA” (Merck Sharp & Dohme LLC, priority 2023, published 2026)
Starred links: 1 amine or outer side, 2 acyl side, 3 side chain; linkers in the order of their positions; H or OH if unused. Non-standard residues stand in square brackets, D forms with d. Phe3Cl4COOH = (S)-4-(2-amino-2-carboxyethyl)-2-chlorobenzoic acid, O=C([C@H](Cc1ccc(C(=O)[*:3])c(Cl)c1)N[*:1])[*:2]; 4PyrimAla = (2S)-2-amino-3-pyrimidin-4-yl-propanoic acid, O=C([C@H](Cc1ccncn1)N[*:1])[*:2]; Phe(4-(5-CO2H-2-pyrimidyl)) = N[C@@H](Cc1ccc(-c2ncc(C(=O)O)cn2)cc1)C(=O)O; Phe(4-(4-Ac-piperazinyl)) = CC(=O)N1CCN(c2ccc(C[C@H](N)C(=O)O)cc2)CC1; Trp(4-Cl)(βS-Me) = C[C@@H](c1c[nH]c2cccc(Cl)c12)[C@H](N)C(=O)O; dPro(4R-(4-pyridylmethyl)) = O=C(O)[C@H]1C[C@@H](Cc2ccncc2)CN1; Trp(βS-Me,4-F) = C[C@@H](c1c[nH]c2cccc(F)c12)[C@H](N)C(=O)O; Bip(4'-CONH2) = NC(=O)c1ccc(-c2ccc(C[C@H](N)C(=O)O)cc2)cc1; Bip(4'-COOH) = N[C@@H](Cc1ccc(-c2ccc(C(=O)O)cc2)cc1)C(=O)O; Ala(1-bicyclo(1.1.1)pentyl) = N[C@@H](CC12CC(C1)C2)C(=O)O; dPro(4R-Bzl(4-F)) = O=C(O)[C@H]1C[C@@H](Cc2ccc(F)cc2)CN1; dPro(3S-(4-F-Bn)) = O=C(O)[C@@H]1NCC[C@@H]1Cc1ccc(F)cc1; Phe(2-Cl,4-COOH) = N[C@@H](Cc1ccc(C(=O)O)cc1Cl)C(=O)O; Bip(4'-Cl) = N[C@@H](Cc1ccc(-c2ccc(Cl)cc2)cc1)C(=O)O; 1Nal(3S-Me) = C[C@@H](c1cccc2ccccc12)[C@H](N)C(=O)O; Ala(pyrimidin-5-yl) = N[C@@H](Cc1cncnc1)C(=O)O; Phe(4-COOH) = N[C@@H](Cc1ccc(C(=O)O)cc1)C(=O)O; Bip = N[C@@H](Cc1ccc(-c2ccccc2)cc1)C(=O)O; Pro(cis-4-F) = O=C(O)[C@@H]1C[C@H](F)CN1; Ala(4-THP) = N[C@@H](CC1CCOCC1)C(=O)O; d(αMeD) = C[C@@](N)(CC(=O)O)C(=O)O; 4Pal = N[C@@H](Cc1ccncc1)C(=O)O; aThr = C[C@H](O)[C@H](N)C(=O)O; d(αMeS) = C[C@@](N)(CO)C(=O)O; Cba = N[C@@H](CC1CCC1)C(=O)O; Dab = NCC[C@H](N)C(=O)O; Aib = CC(C)(N)C(=O)O

B1: SEQ ID NO 342 (peptide)
peptide: cyclo([Bip(4'-CONH2)][Ala(1-bicyclo(1.1.1)pentyl)][Phe(4-COOH)]G[Pro(cis-4-F)][Trp(βS-Me,4-F)][Aib]SW[d(αMeD)][Ala(pyrimidin-5-yl)]Q[Dab]G[dPro(4R-(4-pyridylmethyl))])
modifications: ring closure inferred
B2: SEQ ID NO 346 (peptide)
peptide: cyclo([Bip(4'-COOH)][4Pal][Phe(4-COOH)]G[Pro(cis-4-F)][Trp(βS-Me,4-F)][Aib]EW[Aib][Ala(pyrimidin-5-yl)]Q[Dab]G[dPro(3S-(4-F-Bn))])
modifications: ring closure inferred
B3: SEQ ID NO 359 (peptide)
peptide: cyclo([Bip(4'-COOH)][4Pal][Phe(4-COOH)]G[Pro(cis-4-F)][Trp(βS-Me,4-F)][Aib]SW[d(αMeD)][aThr]Q[Dab]G[dPro(4R-(4-pyridylmethyl))])
modifications: ring closure inferred
B4: SEQ ID NO 356 (peptide)
peptide: cyclo([Bip(4'-COOH)][4Pal][Phe(2-Cl,4-COOH)]G[Pro(cis-4-F)][Trp(βS-Me,4-F)][Aib]SW[d(αMeD)][aThr]Q[Dab]G[dPro(4R-(4-pyridylmethyl))])
modifications: ring closure inferred
B5: SEQ ID NO 353 (peptide)
peptide: cyclo([Bip(4'-COOH)][4Pal][Phe(4-COOH)]G[Pro(cis-4-F)][Trp(βS-Me,4-F)][Aib][aThr]W[d(αMeD)][Ala(4-THP)]Q[Dab]G[dPro(4R-(4-pyridylmethyl))])
modifications: ring closure inferred
B6: SEQ ID NO 343 (peptide)
peptide: cyclo([Bip][Ala(1-bicyclo(1.1.1)pentyl)][Phe(4-COOH)]G[Pro(cis-4-F)][Trp(βS-Me,4-F)][Aib]SW[d(αMeD)][Ala(pyrimidin-5-yl)]Q[Dab]G[dPro(4R-(4-pyridylmethyl))])
modifications: ring closure inferred
B7: SEQ ID NO 350 (peptide)
peptide: cyclo([Phe(4-(4-Ac-piperazinyl))][4Pal][Phe(4-COOH)]G[Pro(cis-4-F)][Trp(βS-Me,4-F)][Aib]SW[d(αMeS)][Ala(pyrimidin-5-yl)]Q[Dab]G[dPro(4R-(4-pyridylmethyl))])
modifications: ring closure inferred
B8: SEQ ID NO 352 (peptide)
peptide: cyclo([Bip(4'-COOH)][4Pal][Phe(4-COOH)]G[Pro(cis-4-F)][Trp(βS-Me,4-F)][Aib][aThr]W[d(αMeS)][aThr]Q[Dab]G[dPro(4R-(4-pyridylmethyl))])
modifications: ring closure inferred
B9: SEQ ID NO 345 (peptide)
peptide: cyclo([Bip(4'-COOH)][4Pal][Phe(4-COOH)]G[Pro(cis-4-F)][Trp(βS-Me,4-F)][Aib]EW[Aib][4PyrimAla]Q[Dab]G[dPro(4R-Bzl(4-F))])
modifications: ring closure inferred
B10: SEQ ID NO 349 (peptide)
peptide: cyclo([Bip(4'-COOH)][Ala(1-bicyclo(1.1.1)pentyl)][Phe(4-COOH)]G[Pro(cis-4-F)][Trp(βS-Me,4-F)][Aib]SW[d(αMeD)]LQ[Dab]G[dPro(4R-(4-pyridylmethyl))])
modifications: ring closure inferred
B11: SEQ ID NO 347 (peptide)
peptide: cyclo([Bip(4'-COOH)][4Pal][Phe(4-COOH)]G[Pro(cis-4-F)][Trp(βS-Me,4-F)][Aib]SW[d(αMeS)]LQ[Dab]G[dPro(4R-(4-pyridylmethyl))])
modifications: ring closure inferred
B12: SEQ ID NO 355 (peptide)
peptide: cyclo([Bip(4'-COOH)][4Pal][Phe(2-Cl,4-COOH)]G[Pro(cis-4-F)][Trp(4-Cl)(βS-Me)][Aib]SW[d(αMeD)][aThr]Q[Dab]G[dPro(4R-(4-pyridylmethyl))])
modifications: ring closure inferred
B13: SEQ ID NO 357 (peptide)
peptide: cyclo([Bip(4'-COOH)][4Pal][Phe(4-COOH)]G[Pro(cis-4-F)][1Nal(3S-Me)][Aib]SW[d(αMeD)][aThr]Q[Dab]G[dPro(4R-(4-pyridylmethyl))])
modifications: ring closure inferred
B14: SEQ ID NO 354 (peptide)
peptide: cyclo([Bip(4'-COOH)][4Pal][Phe(2-Cl,4-COOH)]G[Pro(cis-4-F)][1Nal(3S-Me)][Aib]SW[d(αMeD)][aThr]Q[Dab]G[dPro(4R-(4-pyridylmethyl))])
modifications: ring closure inferred
B15: SEQ ID NO 348 (peptide)
peptide: cyclo([Bip(4'-COOH)][Ala(1-bicyclo(1.1.1)pentyl)][Phe(4-COOH)]G[Pro(cis-4-F)][Trp(βS-Me,4-F)][Aib]SW[d(αMeD)][Cba]Q[Dab]G[dPro(4R-(4-pyridylmethyl))])
modifications: ring closure inferred
B16: SEQ ID NO 358 (peptide)
peptide: cyclo([Bip(4'-COOH)][4Pal][Phe(4-COOH)]G[Pro(cis-4-F)][Trp(4-Cl)(βS-Me)][Aib]SW[d(αMeD)][aThr]Q[Dab]G[dPro(4R-(4-pyridylmethyl))])
modifications: ring closure inferred
B17: SEQ ID NO 344 (peptide)
peptide: cyclo([Bip(4'-Cl)][4Pal][Phe(4-COOH)]G[Pro(cis-4-F)][Trp(βS-Me,4-F)][Aib]SW[d(αMeD)][Ala(pyrimidin-5-yl)]Q[Dab]G[dPro(4R-(4-pyridylmethyl))])
modifications: ring closure inferred
B18: SEQ ID NO 351 (peptide)
peptide: cyclo([Phe(4-(5-CO2H-2-pyrimidyl))][4Pal][Phe(4-COOH)]G[Pro(cis-4-F)][Trp(βS-Me,4-F)][Aib]SW[d(αMeD)][Ala(4-THP)]Q[Dab]G[dPro(4R-(4-pyridylmethyl))])
modifications: ring closure inferred
B19: SEQ ID NO 360 (peptide)
peptide: cyclo([Phe(4-(5-CO2H-2-pyrimidyl))][4Pal][Phe(2-Cl,4-COOH)]G[Pro(cis-4-F)][1Nal(3S-Me)][Aib]SW[d(αMeD)][Ala(4-THP)]Q[Dab]G[dPro(4R-(4-pyridylmethyl))])
modifications: ring closure inferred
B20: SEQ ID NO 361 (peptide)
peptide: cyclo([Phe(4-(5-CO2H-2-pyrimidyl))][4Pal][Phe3Cl4COOH]G[Pro(cis-4-F)][Trp(βS-Me,4-F)][Aib]SW[d(αMeD)][Ala(4-THP)]Q[Dab]G[dPro(4R-(4-pyridylmethyl))])
modifications: ring closure inferred

biological target: Recombinant human IL-1β (BioLegend 579404) (human, UniProt P01584 117-269); assay: cell-based or functional assay

| MRC5 IC50 [nM] | Binder |
| --- | --- |
| 0.022 | B1 |
| 0.01 | B2 |
| 0.011 | B3 |
| 0.011 | B4 |
| 0.017 | B5 |
| 0.026 | B6 |
| 0.02 | B7 |
| 0.023 | B8 |
| 0.012 | B9 |
| 0.017 | B10 |
| 0.025 | B11 |
| 0.013 | B12 |
| 0.017 | B13 |
| 0.014 | B14 |
| 0.018 | B15 |
| 0.013 | B16 |
| 0.022 | B17 |
| 0.016 | B18 |
| 0.019 | B19 |
| 0.022 | B20 |
